Source: US9993566B2, “SEZ6 modulators and methods of use” (AbbVie Stemcentrx LLC, priority 2013, dated 2018)

Legend:
LU124OXAHIp2 cells = test: Oxaliplatin sensitivity, Cell Titer Glo dose response; format: cell-based, human; conditions: seven days in culture, oxaliplatin-resistant line
Description: (§1) Cisplatin and its derivatives, including oxaliplatin are the chemotherapeutic standard of care for SCLC. An oxaliplatin-resistant SCLC PDX line was developed due to concerns that cisplatin may not be stable in tissue culture medium (Schuldes et al., 1997, PMID: 9128988). The oxaliplatin-resistant SCLC line was generated by isolating human cells from LU124p2, a SCLC PDX line that had been passaged subcutaneously twice through NOD.SCID mice. LU124p2 tumors were resected from mice after reaching 800-2,000 mm^3, dissociated into single cell suspensions using art-recognized enzymatic digestion techniques (see, for example, US2007/0292414), and depleted of murine cells. The cells were then washed and cultured in 5% oxygen and serum-free medium and immediately treated with 1 μM of oxaliplatin. After seven days of exposure to oxaliplatin, the cells were washed and allowed to recover for two weeks in standard serum-free media with fresh renewal of medium twice a week. After the recovery period, the cells were washed and re-plated into a new flask with 1 μM of oxaliplatin for seven more days, followed by a final wash and a two week recovery period. The resulting cell line was termed LU124OXAHIp2. Single cell suspensions were generated using Versene (Invitrogen). Some of the cells were injected into mice to propagate the LU124OXAHIp2 cell line, while other cells were cultured in vitro to test sensitivity to oxaliplatin.
(§2) Oxaliplatin sensitivity of LU124OXAHIp2 was tested as follows: LU124OXAHIp2 cells were plated onto 96-well plates and treated with a titration of oxaliplatin in serum-free medium as is standard in the art. After seven days in culture, cells were harvested using Cell Titer Glo® (Promega) as per the manufacturer's instructions and dose response curves were obtained. […] To determine whether the resistance was stable, LU124OXAHIp2 cells were passaged again through immunocompromised mice to yield the cell line called LU124OXAHIp3.

LU124OXAHIp3 cells = test: as above; format: cell-based, human; conditions: after further passage through mice without oxaliplatin
Description: as §1, §2

[1] = system: LU124p2 parental cell line; test: as above; format: cell-based, human; conditions: seven days in culture
Description: as §1, §2

[2] = system: HEK293 cells overexpressing SEZ6; test: In vitro cytotoxicity of ADC; format: cell-based, human
Description: The final ADC was analyzed for protein concentration (by measuring UV), aggregation (SEC), drug to antibody ratio (DAR) by reverse phase (RP) HPLC, presence of unconjugated antibody by hydrophobic interaction chromatography (HIC) HPLC, non-proteinaceous materials by RP HPLC and in vitro cytotoxicity using a SEZ6 expressing cell line.

LU117 tumor = test: SCLC NTX tumor volume in immunodeficient mice, humanized ADCs; format: in vivo, human; conditions: three injections of 1 mg/kg over seven days
Description: (§3) The ability of humanized anti-SEZ6 ADCs to reduce SCLC tumor volume was also tested. Anti-SEZ6 ADCs (hSC17.17, hSC17.24, hSC17.34 and hSC17.46), and the human IgG1 isotype control ADC (huIgG1) were administered to immunodeficient mice bearing various patient derived NTX tumors. Mice were given three injections of 1 mg/kg (indicated by the vertical lines in FIGS. 18C and 18D) over a period of seven days. Following treatment, tumor volumes and mouse weights were monitored until tumors exceeded 800 mm^3 or mice became sick. Complete and durable elimination of tumor mass was achieved by the administration of humanized anti-SEZ6 ADCs in four SCLC tumors.

LU64 tumor = test: as above; format: in vivo, human; conditions: three injections of 1 mg/kg over seven days
Description: as §3

LU80 tumor = test: as above; format: in vivo, human; conditions: three injections of 1 mg/kg over seven days
Description: as §3

rat SEZ6 = test: Flow cytometry cross reactivity, RIN-m5F cells; format: binding; conditions: 5 μg/mL antibody
Sequence of rat SEZ6 (as listed by the source): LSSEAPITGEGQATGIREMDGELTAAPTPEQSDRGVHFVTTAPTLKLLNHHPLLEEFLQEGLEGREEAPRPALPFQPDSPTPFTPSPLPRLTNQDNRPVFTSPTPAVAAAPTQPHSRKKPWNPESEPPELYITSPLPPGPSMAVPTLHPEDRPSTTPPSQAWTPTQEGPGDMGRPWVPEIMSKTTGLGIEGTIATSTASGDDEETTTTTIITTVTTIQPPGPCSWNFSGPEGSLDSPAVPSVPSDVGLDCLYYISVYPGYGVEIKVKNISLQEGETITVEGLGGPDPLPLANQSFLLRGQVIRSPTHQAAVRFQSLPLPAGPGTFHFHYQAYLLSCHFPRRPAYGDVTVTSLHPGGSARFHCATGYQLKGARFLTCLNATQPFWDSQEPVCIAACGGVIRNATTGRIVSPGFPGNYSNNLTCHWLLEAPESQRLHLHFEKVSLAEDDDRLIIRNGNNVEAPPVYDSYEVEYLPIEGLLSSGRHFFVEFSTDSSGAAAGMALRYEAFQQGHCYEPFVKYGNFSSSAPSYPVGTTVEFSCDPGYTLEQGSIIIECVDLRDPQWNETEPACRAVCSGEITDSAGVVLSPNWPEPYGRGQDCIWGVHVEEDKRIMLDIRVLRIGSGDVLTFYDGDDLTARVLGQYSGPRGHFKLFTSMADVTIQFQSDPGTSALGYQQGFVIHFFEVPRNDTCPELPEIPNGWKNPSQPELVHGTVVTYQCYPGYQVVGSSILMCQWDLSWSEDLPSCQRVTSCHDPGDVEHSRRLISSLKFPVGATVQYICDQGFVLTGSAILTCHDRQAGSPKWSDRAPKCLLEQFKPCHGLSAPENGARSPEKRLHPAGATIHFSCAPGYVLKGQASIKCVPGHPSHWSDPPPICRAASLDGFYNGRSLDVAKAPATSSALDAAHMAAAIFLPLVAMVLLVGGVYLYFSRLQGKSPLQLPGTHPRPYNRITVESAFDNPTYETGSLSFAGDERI
In short: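 Neuro2a (mouse SEZ6), RIN-m5F (rat SEZ6) or yeast displaying cynomolgus SEZ6 extracellular domain, 1×10^5 cells, incubated 30 min with 5 μg/mL antibody in PBS/2% FCS. Detection by DyLight 649 anti-mouse IgG Fc secondary (1:200, 15 min), then flow cytometry, with DAPI for mammalian cells only.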

cynomolgus SEZ6 = test: Flow cytometry cross reactivity, yeast displaying extracellular domain of cynomolgus SEZ6; format: binding; conditions: 5 μg/mL antibody
Description: In this regard flow cytometry was performed using a FACSCanto II as per the manufacturer's instructions in order to confirm that selected SC17 antibody modulators can immunospecifically associate with human SEZ6 and to determine whether the same modulators cross-react with cynomolgus, rat and/or murine SEZ6 in addition to SEZ6L and SEZ6L2. More particularly modulators were tested for cross reactivity to murine SEZ6 and rat SEZ6 by flow cytometry against Neuro2a (ATCC Cat # CCL131), and RIN-m5F (ATCC cat # CRL-11605) cell lines which express mouse SEZ6 and rat SEZ6, respectively. For examining cross reactivity to cynomolgus SEZ6, yeast displaying the extracellular domain of cynomolgus SEZ6 (Boder et al, 1997) were used for flow cytometry analysis.
Briefly 1×10^5 cells per well of Neuro2a, RIN-5mF, or yeast displaying cynomolgus SEZ6 cells were incubated for 30 minutes with 50 μL PBS (2% FCS) buffer with 5 μg/mL antibody. Cells were washed twice with the same buffer and then incubated with 50 μL per sample DyLight 649 labeled goat-anti-mouse IgG, Fc fragment specific secondary diluted 1:200 in PBS buffer. After incubating for 15 minutes cells were washed twice with the PBS buffer and re-suspended in the same with DAPI for flow cytometry analysis of Neuro2a and Rin-m5F or buffer without DAPI for flow cytometric analysis of yeast cells with cSEZ6.

SEZ6 ECD = molecular target: T1, SEZ6 ECD (Homo sapiens, UniProt Q53EL9); test: Fine epitope mapping (phage display peptide library or yeast-displayed SEZ6 ECD mutants); format: binding; conditions: epitope conformational (discontinuous) or linear
T1 construct: SEZ6 extracellular domain (amino acids 1-904); expressed in transfected cells; host or cells: yeast (surface display, Cochran et al. protocol)
T1 sequence (Q53EL9 20-923): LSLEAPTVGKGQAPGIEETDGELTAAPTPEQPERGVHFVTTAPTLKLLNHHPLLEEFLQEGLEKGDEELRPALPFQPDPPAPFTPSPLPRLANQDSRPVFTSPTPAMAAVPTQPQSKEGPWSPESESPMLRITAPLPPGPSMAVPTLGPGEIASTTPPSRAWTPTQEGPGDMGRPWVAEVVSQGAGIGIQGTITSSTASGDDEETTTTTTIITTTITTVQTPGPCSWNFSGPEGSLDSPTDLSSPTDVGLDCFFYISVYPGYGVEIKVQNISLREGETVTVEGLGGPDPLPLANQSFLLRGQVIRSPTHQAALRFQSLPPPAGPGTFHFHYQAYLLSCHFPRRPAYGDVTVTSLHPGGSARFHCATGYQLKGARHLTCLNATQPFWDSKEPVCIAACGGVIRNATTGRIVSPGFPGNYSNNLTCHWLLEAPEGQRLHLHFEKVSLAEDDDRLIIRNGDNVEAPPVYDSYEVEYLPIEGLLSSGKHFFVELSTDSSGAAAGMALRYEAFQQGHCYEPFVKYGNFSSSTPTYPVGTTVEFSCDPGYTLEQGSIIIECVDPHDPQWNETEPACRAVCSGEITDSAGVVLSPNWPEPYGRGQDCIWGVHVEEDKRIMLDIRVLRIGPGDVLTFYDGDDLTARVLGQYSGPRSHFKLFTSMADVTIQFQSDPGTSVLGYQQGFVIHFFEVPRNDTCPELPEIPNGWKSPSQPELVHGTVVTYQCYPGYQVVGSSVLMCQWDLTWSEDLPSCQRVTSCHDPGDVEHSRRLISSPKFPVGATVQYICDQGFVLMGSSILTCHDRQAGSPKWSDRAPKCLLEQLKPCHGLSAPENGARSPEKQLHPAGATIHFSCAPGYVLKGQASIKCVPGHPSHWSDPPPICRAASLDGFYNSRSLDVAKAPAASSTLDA

LU50 LCNEC tumor = test: NTX tumor growth in immunodeficient mice, murine ADCs; format: in vivo, human; conditions: three injections of 1 mg/kg intraperitoneally over seven days, NOD/SCID mice
Description: Patient-derived NTX tumors were grown subcutaneously in the flanks of female NOD/SCID recipient mice using art-recognized techniques. Tumor volumes and mouse weights were monitored twice per week. When tumor volumes reached 150-250 mm^3, mice were randomly assigned to treatment groups and injected intraperitoneally with SC17-ADC1 or a control MsIgG1-ADC1. Mice were given three injections of 1 mg/kg (indicated by the vertical lines in FIG. 17B) over a period of seven days. Following treatment, tumor volumes and mouse weights were monitored until tumors exceeded 800 mm^3 or mice became sick.

O=C1[O][Pt]2([NH][C@@H]3CCCC[C@H]3[NH]2)[O]C1=O [oxaliplatin]
IC50 (LU124OXAHIp2 cells): 2000 to 2500 nM | resistance to oxaliplatin, LU124OXAHIp3 (LU124OXAHIp3 cells): Resistance was maintained | IC50 [1]: 36 nM

B1: hSC17.17-ADC1 (conjugate)
VL: EIVLTQSPATLSLSPGERATLSCSASSSVSYMHWYQQKPGQAPRLLIYDTSKLPSGIPARFSGSGSGTDFTLTISSLEPEDFAVYYCQQWSSTPPTFGQGTKLEIK
VH: QVQLVQSGAEVKKPGASVKVSCKASGYTFTDYNMHWVRQAPGQGLEWMGEINPNIGGTGYNQKFKGRVTMTRDTSISTAYMELSRLRSDDTAVYYCARTYSYYSYEFAYWGQGTLVTVSS
IC50 [2]: 11 nM | tumor volume, LU117 (LU117 tumor): reduction | tumor volume, LU64 (LU64 tumor): elimination | tumor volume, LU80 (LU80 tumor): reduction

B2: SC17.46 (antibody, V domains shown)
VH: QVQLQQPGAELVKPGASMKLSCKASGYTFTSYWINWVKQRPGQGLEWIGNIFPDTTTTNYNEKFKSKATLTVDTSSSTAYMQLSSLTSDDSAVYYCAREYYDGTYDAMDYWGQGTSVTV
VL: SFVMTQTPKFLLVSAGDRVTITCKASQSVNNDVAWYQQKPGQSPKLLIYYASNRYTGVPDRFTGSGYGTDFTFTISTVQAEDLAVYFCQQDYSSPRTFGGGTKLEIK
modifications: Murine SC17.46 VH; Murine SC17.46 VL
cross reactivity to rat SEZ6 (rat SEZ6): lack of cross reactivity | cross reactivity to cynomolgus SEZ6 (cynomolgus SEZ6): lack of cross reactivity | Discontinuous (SEZ6 ECD): Yes | duration of tumor growth suppression, LU50 (LU50 LCNEC tumor): 35 days
